Results on one substance are retold here after publication PMC3792671.

For the experiment, the target named is RepSTK1(1-269), residues 1-269 of the rolling-circle replication initiator protein RepSTK1 of plasmid pSTK1 (Geobacillus stearothermophilus (plasmid pSTK1)). The experiment in a line: SEC-MALS; analytical gel filtration on Superdex S75 10/300, 50 µl protein loaded, 50 mM Tris-HCl pH 7.5, 500 mM KCl; eluate through DAWN HELIOS II MALLS detector; dimer. A general note: SEC sorts molecules by how far they enter the pores of the column.

For orientation: stoichiometry N means the number of molecules, sites or subunits per partner or assembly. In turn, “RepSTK1(1-269), residues 1-269 of the rolling-circle replication initiator protein RepSTK1 of plasmid pSTK1 (domain or fragment)” yielded a stoichiometry N of 2.
